# Patent publication US20240191187A1, “MEDIA AND METHODS FOR GROWING MAMMARY ORGANOIDS” (STEMCELL TECHNOLOGIES CANADA INC., priority 2021, published 2024)
# Entries after “also recorded” stand apart in the source; their conditions may differ.
# Tested on: human mammary epithelial cells
# Test: Human mammary organoids stained for K8/K14, confocal microscopy
# Type: cell-based
# Conditions: Day 17 organoids; 50 ng/mL NRG3, 100 ng/mL AMH, 50 ng/mL GM-CSF
# Procedure: Organoids were recovered from Matrigel by incubating in Corning Cell Recovery Solution for 1 hour with rocking on ice. Organoids were then fixed in 4% paraformaldehyde (PFA) at room temperature for 1 hour and stored in PBS at 4° C. After PFA fixation, antigen retrieval was performed by boiling the organoids in sodium citrate buffer for 20 minutes at 96° C. Organoids were permeabilized in a 0.5% Triton-X-100 solution in PBS overnight at room temperature. Samples were blocked by incubating overnight in a solution of 5% goat serum.
# Following fixation and permeabilization, the organoids were incubated sequentially in primary antibody and secondary antibody solutions (as summarized in the table below) overnight at room temperature. Samples were counterstained in a 2 μg/ml DAPI solution for 20 minutes and dehydrated through stepwise incubations in solutions with increasing methanol concentrations (50%, 80%, then 100% methanol). Organoids were embedded in a solution of 2:1 Benzyl Benzoate-Benzyl alcohol (BABB), transferred to Ibidi glass bottom chamber slides and imaged using a Leica SP8 confocal laser scanning microscope. […]
# The effects of modulating signaling through BMP were analyzed across multiple experiments in terms of total cell count among formed organoids (FIG. 9A) and the lineage balance of the cells among formed organoids (FIG. 9B). […]
molecule,measurement,value
"anti mullerian hormone (protein, UniProt P03971 452-560, looked up) Muellerian-inhibiting factor: SAGATAADGPCALRELSVDLRAERSVLIPETYQANNCQGVCGWPQSDRNPRYGNHVVLLLKMQVRGAALARPPCCVPTAYAGKLLISLSEERISAHHVPNMVATECGCR",lineage restriction of organoids formed (K8/K14 staining),bias the culture of mammary epithelial cells to form luminal-restricted organoids; also recorded: Luminal-restricted organoids were formed
